Test results published in paper PMC10842940, “Establishment of dsDNA-dsDNA interactions by the condensin complex” (Molecular cell, 2023).

What was measured:
[1] = target: T1, Cnd1^Ycs4 (fission yeast condensin HEAT-repeat subunit) (S. pombe, UniProt O94679 1-1158); experiment: cross-linking; sulfo-SDA cross-link mass spectrometry (CLMS) of the purified five-subunit condensin complex with equimolar 124 bp linear dsDNA and 0.5 mM ADP·BeF3 (DNA-gripping state); CL buffer, 30°C 30 min, UV 365 nm on ice; 1% FDR at residue-pair level; conditions: both partners purified
T1 construct: Cnd1 (Ycs4), S. pombe condensin HEAT-repeat subunit; cDNA cloned into an S. cerevisiae expression vector; source: S. cerevisiae (w303, pep4 deleted), co-overexpressed with the other four condensin subunits from GAL1-10 promoters; in cell extract, and purified as the complex (IgG-agarose, 3C protease elution, heparin, Superose 6)
T1 sequence (looked up): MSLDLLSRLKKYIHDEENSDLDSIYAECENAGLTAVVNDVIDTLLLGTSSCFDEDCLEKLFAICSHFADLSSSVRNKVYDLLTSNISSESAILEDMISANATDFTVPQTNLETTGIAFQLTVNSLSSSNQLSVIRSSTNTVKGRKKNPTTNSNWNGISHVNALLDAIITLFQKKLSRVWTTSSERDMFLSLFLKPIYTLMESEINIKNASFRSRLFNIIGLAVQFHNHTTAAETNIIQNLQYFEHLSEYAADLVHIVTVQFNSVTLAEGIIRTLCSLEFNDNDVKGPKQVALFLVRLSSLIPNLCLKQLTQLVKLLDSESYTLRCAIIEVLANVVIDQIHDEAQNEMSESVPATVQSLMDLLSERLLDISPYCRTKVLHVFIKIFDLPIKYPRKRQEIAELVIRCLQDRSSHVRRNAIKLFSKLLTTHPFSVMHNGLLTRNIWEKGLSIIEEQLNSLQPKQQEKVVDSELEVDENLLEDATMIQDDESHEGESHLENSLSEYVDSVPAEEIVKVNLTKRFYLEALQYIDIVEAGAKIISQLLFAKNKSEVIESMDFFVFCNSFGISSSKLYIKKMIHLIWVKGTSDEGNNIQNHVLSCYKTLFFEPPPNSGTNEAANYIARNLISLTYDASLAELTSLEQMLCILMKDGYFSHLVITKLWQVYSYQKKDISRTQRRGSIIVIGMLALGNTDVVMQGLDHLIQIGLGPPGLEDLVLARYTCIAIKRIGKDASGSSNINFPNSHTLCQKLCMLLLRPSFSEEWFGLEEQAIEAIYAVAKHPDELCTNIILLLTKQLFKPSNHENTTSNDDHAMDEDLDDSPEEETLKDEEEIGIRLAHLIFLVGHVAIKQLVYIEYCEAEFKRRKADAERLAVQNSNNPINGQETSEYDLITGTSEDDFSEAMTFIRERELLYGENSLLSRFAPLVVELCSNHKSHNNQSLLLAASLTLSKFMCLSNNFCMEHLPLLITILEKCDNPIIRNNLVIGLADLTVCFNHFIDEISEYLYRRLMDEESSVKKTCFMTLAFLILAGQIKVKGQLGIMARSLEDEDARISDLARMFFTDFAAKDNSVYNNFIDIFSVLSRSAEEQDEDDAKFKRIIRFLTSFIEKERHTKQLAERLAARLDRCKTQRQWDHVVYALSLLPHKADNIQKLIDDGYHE

[2] = target: T2, Cut14^Smc2 (fission yeast condensin SMC subunit) (S. pombe, UniProt P41003 1-1172); experiment: cross-linking; sulfo-SDA cross-link mass spectrometry (CLMS) of the purified five-subunit condensin complex with equimolar 124 bp linear dsDNA, no nucleotide (initial state); CL buffer, 30°C 30 min, UV 365 nm on ice; 1% FDR at residue-pair level; conditions: both partners purified
T2 construct: Cut14 (Smc2), S. pombe condensin SMC subunit; cDNA cloned into an S. cerevisiae expression vector; The Pk tag is used for the condensin immunoprecipitation in the DNA assays; also called Cut14-3xPk; source: S. cerevisiae (w303, pep4 deleted), co-overexpressed with the other four condensin subunits from GAL1-10 promoters; in cell extract, and purified as the complex (IgG-agarose, 3C protease …)
T2 sequence (looked up): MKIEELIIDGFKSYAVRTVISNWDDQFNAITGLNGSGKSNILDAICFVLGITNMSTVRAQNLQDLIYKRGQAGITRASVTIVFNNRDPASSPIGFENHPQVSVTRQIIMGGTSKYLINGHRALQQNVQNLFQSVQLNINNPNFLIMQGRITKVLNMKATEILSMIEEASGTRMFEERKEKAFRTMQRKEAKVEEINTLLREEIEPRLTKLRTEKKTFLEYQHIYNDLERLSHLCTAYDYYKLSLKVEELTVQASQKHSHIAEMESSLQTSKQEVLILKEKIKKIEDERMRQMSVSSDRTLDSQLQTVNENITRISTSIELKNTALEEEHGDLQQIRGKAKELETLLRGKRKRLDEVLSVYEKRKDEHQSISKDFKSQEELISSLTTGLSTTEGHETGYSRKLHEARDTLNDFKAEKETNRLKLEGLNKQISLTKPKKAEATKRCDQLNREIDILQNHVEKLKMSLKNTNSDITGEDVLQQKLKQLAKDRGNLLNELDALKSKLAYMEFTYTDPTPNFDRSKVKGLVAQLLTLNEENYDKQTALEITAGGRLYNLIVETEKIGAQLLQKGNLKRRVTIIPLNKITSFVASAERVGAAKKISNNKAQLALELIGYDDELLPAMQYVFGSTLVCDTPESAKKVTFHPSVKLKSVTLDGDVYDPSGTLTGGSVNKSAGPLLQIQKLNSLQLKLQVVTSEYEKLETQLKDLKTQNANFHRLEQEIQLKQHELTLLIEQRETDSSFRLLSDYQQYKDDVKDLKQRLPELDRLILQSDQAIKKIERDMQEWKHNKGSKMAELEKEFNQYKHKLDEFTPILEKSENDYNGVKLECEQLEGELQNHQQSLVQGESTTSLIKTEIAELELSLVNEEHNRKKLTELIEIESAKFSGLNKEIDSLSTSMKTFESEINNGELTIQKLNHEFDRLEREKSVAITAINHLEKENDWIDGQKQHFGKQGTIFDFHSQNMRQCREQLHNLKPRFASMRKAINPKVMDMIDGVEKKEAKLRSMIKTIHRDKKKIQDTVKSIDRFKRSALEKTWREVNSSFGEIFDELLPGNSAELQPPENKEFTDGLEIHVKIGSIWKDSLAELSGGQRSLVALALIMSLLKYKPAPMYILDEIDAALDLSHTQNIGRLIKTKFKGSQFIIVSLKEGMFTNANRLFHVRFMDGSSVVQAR

- binding result [1]: binds
- binding result [2]: binds
B1: Cnd3^Ycg1 (fission yeast condensin HEAT-repeat subunit) (natural protein, S. pombe, UniProt Q10429 1-875, looked up)
chain: MSCIQIISSSQTSIAGHRKLCNKLFTLRTQEGFETDILRALNIILTVKKGNSNADRVLRFLVTFVNYLQQKDPEIDIVQPILKHILRGLDAKDKTVRYRCCQIIARVVNCVKEIDDDLYNTLKEKLLSRVLDRESIVRLEAVVALSRLQEDTGDEENDVRNILLFLLQNDPSSEVRRSVLLNIEVSNSTLPFILERARDVDAANRKCVYARVLPKIGDFRYLSIKKRVRILKWGLNDRDESVEKAAADMLAYQWIENADNNLLELLERLDVSNNSDVAVLAIKKFFDVRVDSLSQLEFPEQFWLELTAESSLLARTFNEICIEKNYTDLLDKMPEVVQLTYYIERQYVSLRDKSSYDESCFIIEQLLYIGLSQDMVDEIGRRKLLKSLTNSLSTMALPDSLISLHIELLRKLCSSENDFCSLLVEIITEVFEQGHSQNQTEEQGNSNAPELNKNDYEGEEITVSQKSPSPSLPPNELNEPEPDDMDGYKEAFNELRCLSYVQCLFENITSSLNENLYMVDMLKTLIIPAVRSHDLPIREKGLECLSLVCLLNADLAFENVPLYLHCYEKGSVVLKCTAIRTLTDMLIQHGKAKFTEYEDAISSILFEALGEFENAELQTLGAEAIAKLLVILHYRDELFLKPLIIQYFEPNTVDNHALRQVLGYFFPVYAFGAHENQWRIATIFCDALLSLLEIYRDLDEDDVQLSIGHIAQQMLDWTDNEKLYERKTQTGDDYIALNHNVHLHLANMIFESLPNASEGKERKFMISLLGKLKIPTDLPSSDYQRTKRKLETYESHGFTMDSTSLSILAKFERMLLQNEEARSKFEETEEERLMENAEENEHAGAEAISGEIIPDTVEANMEDEEEVYVKQEEDL
notes: Cnd3 (Ycg1), S. pombe condensin HEAT-repeat subunit; cDNA cloned into an S. cerevisiae expression vector; also called Cnd3^CAP-G; source: S. cerevisiae (w303, pep4 deleted), co-overexpressed with the other four condensin subunits from GAL1-10 promoters; in cell extract, and purified as the complex (IgG-agarose, 3C protease elution, heparin, Superose 6)
